The target of assay [1] is T1, extracellular segment of the PRLR protein of cynomolgus monkey with avi-(his)6 tag (cynoPRLR-ECD-avi-his) (cynomolgus monkey).
T1 construct: The assays say only 'monomeric monkey PRLR extracellular domain / ECD'; also called cynomolgus monkey PRLR extracellular domain; Monkey PRLR
T1 chain: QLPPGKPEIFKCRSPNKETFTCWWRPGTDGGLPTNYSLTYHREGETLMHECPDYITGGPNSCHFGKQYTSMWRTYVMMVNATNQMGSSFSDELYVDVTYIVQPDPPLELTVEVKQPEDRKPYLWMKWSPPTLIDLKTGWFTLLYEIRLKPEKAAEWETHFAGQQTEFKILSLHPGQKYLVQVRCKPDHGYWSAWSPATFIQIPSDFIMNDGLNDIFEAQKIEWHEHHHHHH
Briefly: ELISA, coated antigen 1 ug/mL. For orientation: ELISA stands for enzyme-linked immunosorbent assay.

For assay [2], the target named is T1, extracellular segment of the PRLR …. As to the kind of experiment: ELISA, coated antigen 1 ug/mL, antibody 10 ug/mL.
In assay [3] the target is T2, recombinant mesothelin protein with the same tag.
T2 construct: Control antigen of the species-specific ELISA; also called Control protein
As to the kind of experiment: ELISA, coated antigen 1 ug/mL, antibody 10 ug/mL.

In assay [4] the target is T3, human PRLR expressed on cells (human, UniProt P16471 25-622).
T3 sequence: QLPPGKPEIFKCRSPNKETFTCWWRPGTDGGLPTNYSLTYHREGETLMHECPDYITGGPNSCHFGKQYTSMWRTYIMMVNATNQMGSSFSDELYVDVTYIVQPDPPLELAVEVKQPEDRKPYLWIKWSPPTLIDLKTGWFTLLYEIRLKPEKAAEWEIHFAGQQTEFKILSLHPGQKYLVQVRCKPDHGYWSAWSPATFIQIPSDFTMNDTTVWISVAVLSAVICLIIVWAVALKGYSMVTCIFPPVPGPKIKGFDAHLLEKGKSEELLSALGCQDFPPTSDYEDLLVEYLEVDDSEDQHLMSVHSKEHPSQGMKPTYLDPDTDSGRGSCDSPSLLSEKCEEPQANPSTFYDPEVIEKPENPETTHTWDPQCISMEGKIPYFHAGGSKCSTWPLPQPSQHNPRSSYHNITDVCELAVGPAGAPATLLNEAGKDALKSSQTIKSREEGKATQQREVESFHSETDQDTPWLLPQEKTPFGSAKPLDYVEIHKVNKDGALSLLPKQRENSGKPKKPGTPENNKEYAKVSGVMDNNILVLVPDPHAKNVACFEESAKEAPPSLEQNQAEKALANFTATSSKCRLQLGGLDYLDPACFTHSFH
Briefly: cell-based or functional assay.

In assay [5] the target is T4, extracellular segment of human PRLR protein with avi-(his)6 tag (hPRLR-ECD-avi-his) (human, UniProt P16471 25-234).
T4 construct: The assays say only 'monomeric human PRLR extracellular domain / ECD'; also called human PRLR extracellular domain; monomeric PRLR ECD
T4 sequence: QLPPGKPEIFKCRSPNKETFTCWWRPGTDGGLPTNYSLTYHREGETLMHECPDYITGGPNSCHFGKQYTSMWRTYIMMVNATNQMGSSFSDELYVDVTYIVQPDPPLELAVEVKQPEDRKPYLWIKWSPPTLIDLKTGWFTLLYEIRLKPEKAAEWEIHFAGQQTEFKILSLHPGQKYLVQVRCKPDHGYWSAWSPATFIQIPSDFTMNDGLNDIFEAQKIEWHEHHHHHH
Briefly: BLI, biotinylated monomeric PRLR ECD on streptavidin sensor, antibody 3.125-100 nM in solution, 1:1 fit. (BLI is a label-free optical method that tracks binding on a fibre tip over time.)

For assay [6], the target named is T1, extracellular segment of the PRLR …. The assay is described as above.
Assay [7] concerns the target T4, extracellular segment of human PRLR …. As to the kind of experiment: BLI epitope binning on biotinylated human PRLR ECD, 100 nM each; competitor: P-PR-C07H-v; which axis is the first antibody is not stated.
Assay [8] has the same target. As to the kind of experiment: BLI epitope binning on biotinylated human PRLR ECD, 100 nM each; competitor: HP-PR01D12-v; which axis is the first antibody is not stated.
The target is the same in assay [9]. Briefly: BLI epitope binning on biotinylated human PRLR ECD, 100 nM each; competitor: P-PR-C05H-v2; which axis is the first antibody is not stated.
The target is the same in assay [10]. As to the kind of experiment: ELISA, coated antigen 1 ug/mL, antibody 10 ug/mL.
The target is the same in assay [11]. Briefly: BLI (Octet), antibody on Protein A sensor, monomeric PRLR ECD in solution, 1:1 fit.

B1: HP-PR02H02 (antibody, V domains shown)
VH: EVMLVESGGGLVKPGGSLKLACAASGFTFSSYTMSWVRQTPEKRLEWVATISSGGSYTYYPDSVKGRFTISRDNAKNTLYLQLSSLKSEDTAMYYCTRDRYYSTTPDWYFDVWGAGTTLTVSS
VL: DIVITQSPATLSVTPGDSVSLSCRATQIIFNNLHWYQQKSHESPRLLITYTSQSISGIPSRFSGSGSGTDFTLTINSVETEDFGMYFCQQSNTWPRTFGGGTKLEIK
notes: also called Antibody No. 21
For the molecule B1, the binding result in assay [1] is on record as “no binding (tested: 10 µg/mL)”. Besides, the “absorbance at 450nm” value in assay [2] was determined as 0.097; in assay [3], 0.076.

B2: HP-PR01D12-v (antibody, V domains shown)
VH: EVQLVESGGGLVQPGGSLRLSCAASGFTFSSFGMNWVRQAPGKGLEWVAYISSGSSIIYYADSVKGRFTISRDNSKNTLYLQMNSLRAEDTAVYYCTRFYGYIPFDYWGQGTLVTVSS
VL: DIQMTQSPSSLSASVGDRVTITCRASSSLIYLHWYQQKPGKAPKLWIYDTSKLASGVPSRFSGSGSGNDYTLTISSLQPEDFATYYCFQGSGYPLTFGQGTKVEIK
notes: also called Antibody No. 27; hHP-PR01D12-v
B2: in assay [4], the “Blocking percentage (%) of 100 nM antibody (STAT5 luciferase reporter)” value (from here on “Blocking percentage (%)”) was determined as 46.7%. The Kd – broadly, the constant that tells how readily two partners part at equilibrium – in assay [5] is 0.00113 nM; in assay [6] it was below 0.001 nM. Also, the koff (as a rule, the rate constant with which the complex falls apart) in [5] amounted to 4.88e-07 s⁻¹; in assay [6], 3.43e-07 s⁻¹. For the same molecule, the kon (as a rule, a measure of how fast the partners come together) in assay [5] amounted to 431000 M⁻¹ s⁻¹; in assay [6], 453000 M⁻¹ s⁻¹. The “ratio of the binding signal of the second antibody to the reference” value (from here on “ratio”) stood at 31.8% in [7], 14.4% in assay [8] and 9.2% in assay [9].

B3: P-PR-C05H-v2 (antibody, V domains shown)
VH: EVQLVQSGAEVKKPGASVKVSCKASGFTFTTFWVHWVRQAPGQGLEWIGNIAPGSTSTNYAQKFQGRATLTVDTSISTAYMELSSLRSEDTAVYYCIRHSGNYFNAMDYWGQGTLVTVSS
VL: DIVMTQSPLSLPVTPGEPASISCRSSKSLLHSNGNTYLYWFLQKPGQSPQLLIYRMSNRASGVPDRFSGSGSGTDFTLKISRVEAEDVGVYYCMQHLEYPLTFGQGTKVEIK
notes: Humanized antibody from P-PR-C05H; also called Antibody No. 25; Anti-P-PR-C05H-v2
In the case of B3, the “Blocking percentage (%)” value in assay [4] is 17.3%. Also, the dissociation constant (Kd) in [5] and in assay [6] was below 0.001 nM throughout. The koff came to 5.03e-07 s⁻¹ in assay [5] and 4.08e-07 s⁻¹ in [6]. Moreover, the kon in assay [5] was 937000 M⁻¹ s⁻¹; in [6], 1.04e+06 M⁻¹ s⁻¹. Moreover, the “ratio” value in [7] is 35%; in assay [8], 15.5%; in assay [9], 11.2%.

B4: P-PR-C07H-v (antibody, V domains shown)
VH: EVQLVQSGAEVKKPGSSVKVSCKASGYTFTNNWLAWIRQAPGQGLEWIGDIYPGGVYTNYNQKFQGRATLTADTSTSTAYMELSSLRSEDTAVYFCYYGDFWSAYWGQGTLVTVSS
VL: DIVMTQSPLSLPVTPGEPASISCRSSKSLLHSNGNTYLYWFLQKPGQSPQLLIYRMSNRASGVPDRFSGSGSGTDFTLKISRVEAEDVGVYYCMQHLEYPLTFGQGTKVEIK
notes: Humanized antibody from P-PR-C07H; also called Antibody No. 26; hP-PR-C07H-v
Turning to B4, the “Blocking percentage (%)” value in assay [4] was found to be 100%. Besides, the figures for the Kd in [5] and in [6] were 3.94 nM and below 0.001 nM, respectively. In addition, the koff in assay [5] was 0.0032 s⁻¹; in [6] it was 4.19e-07 s⁻¹. The values for the kon in assay [5] and in [6] were 813000 M⁻¹ s⁻¹ and 663000 M⁻¹ s⁻¹, respectively. Moreover, the “ratio” value in assay [7] was 13.4%; in assay [8], 49.8%; in assay [9], 52.7%.

B5: HP-PR01B01 (antibody, V domains shown)
VH: EVHLVESGPDLVKPSQSLSLTCTVTGYSITSGYNWHWIRQFPGNKLEWMGYIHYSGSTKYDPSLKSRISFTRDTSRNQFFLQLNSVTTEDRATYYCARSEAGGYSWFAYWGQGTLVTVSA
VL: DIVMTQSPAIMSASPGEKVTMACSASSSVNYMHWYQQKSGTSPKRWIYDTSKLASGVPARFSGSGSGTSYSLTISSMEAEDAATYYCQQWSSNPLTFGAGTKLELK
notes: also called Antibody No. 23
B5: the binding result in assay [1] was “no binding (tested: 10 µg/mL)”. In addition, the “absorbance at 450nm” value was found to be 0.077 in assay [2] and 0.076 in assay [3].

B6: P-PR-D06H (antibody, V domains shown)
VH: QVQLQQPGSELVRPGASVKLSCKASGFTFTTFWVHWVKQRPGQGLEWIGNISPGSTSTNYNEKFKNKASLTVDTFSNTAYMQLSSLTSEDSAVYYCIRHSGNYFNAMDYWGQGTTLTVSS
VL: DIVMTQAAPSVPVTPGESVTISCRSSKSLLHSNGKTYLYWFLQRPGQSPQLLIYWMSNLASGVPDRFSGSGSGTAFTLRISRVEAEDVGVYYCMQHLEYPFTFGVGTKLELK
notes: also called Antibody No. 16; P-PR-D06W
As for B6, in [10], the “absorbance at 450nm” value came to 2.48. Besides, the “absorbance at 450nm” value in assay [3] worked out at 0.137. In assay [11], this molecule returned a dissociation constant Kd of 3.38 nM, a koff of 0.000389 s⁻¹ and an on-rate constant (kon) of 115000 M⁻¹ s⁻¹.

B7: P-PR-C07H (antibody, V domains shown)
VH: EVQLQQSGAELVRPGTSVQISCKASGYTFTNNWLAWIKQRPGHGLEWIGDIYPGGVYTNYNEKFKGKATLTADTSSSTAYMQLSSLTSEDSAVYFCYYGDFWSAYWGQGTLVTVSA
VL: DIVMTQAAPSVPVTPGESVSISCRSSKSLLHSNGNTYLYWFLQRPGQSPQLLIYRMSNLASGVPDRFSGSGSGTAFTLRISRVEAEDVGVYYCMQHLEYPLTFGAGTKLELK
notes: also called Antibody No. 5
On to B7, for which the “absorbance at 450nm” value in [10] is 2.29. Further, the “absorbance at 450nm” value in assay [3] worked out at 0.062. In assay [11], this molecule displayed a Kd of 3.64 nM, a koff of 0.000386 s⁻¹ and a kon of 106000 M⁻¹ s⁻¹.
